Measured values: patent US20210079109A1 (Regeneron, published 2021)
Where a chain is given by its changes, count along the chain named.

T1: human CD63 (human, UniProt P08962 2-238)
T1 construct: stably transfected in NIH3T3/hCD63; The cell line is named under assay; also called hCD63
T1 sequence: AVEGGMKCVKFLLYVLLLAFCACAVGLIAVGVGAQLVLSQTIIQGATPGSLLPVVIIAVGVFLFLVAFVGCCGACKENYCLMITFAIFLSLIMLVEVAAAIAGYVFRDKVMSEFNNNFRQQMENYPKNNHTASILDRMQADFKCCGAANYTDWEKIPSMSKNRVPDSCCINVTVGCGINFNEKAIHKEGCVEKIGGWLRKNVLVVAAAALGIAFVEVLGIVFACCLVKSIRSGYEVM

B1: H2M12450N (antibody, V domains shown)
VH: QVQLQESGPKVVKPSETLSLTCTVSGGSISSYYWNWIRQSPGKGLEWIGYTKRGYTDYNPSLRSRVTISEDTSKNQFSLRISSVTAADTAVYYCAQMGWGSHAFDMWGQGTMVAVSS
VL: EIVLTQSPGTLSLSPGERATLSCRASQSVNSRYLAWYQQKPGQAPRLLIYGASSRATGIPDRCSGSGSGTDFTLTISRLEPEDFAVYYCQQYGSSPWTFGQGTKVEIK
notes: also called H2aM12450N; mAb12450
B2: H1M12451N (antibody, V domains shown)
VH: QVQLQESGPGLMKPSETLSLTCTVSGGSFSSYYWNWIRQSPGKGLEWIGYIRYSGDTNYKPSLKSRFTISIDTSKNLFSLRLKSVTAADTAVYYCARMGLGSDAFDIWGQGTMVTVSS
VL: B1 VL with S31N, R32N, A52V, S53F, S54N, G58N, C63F
B3: H2M12395N (antibody, V domains shown)
VH: QVQLQESGPRLVKPSETLSLTCIVSGGSISNFYWNWIRQSPGKGLEWIGYFFYTGTIDYNPSLKSRVTISLDTSKNQFSLNLRLLTAADAAVYYCARMGLGANAFDIWGHGTMVTVSS
VL: B1 VL with S28H, N30S, R32N, A52G, C63F, E82A, Y87F, S94N, I107M
notes: also called H2aM12395N

Columns and labels:
human CD63 [1] = target: T1, human CD63; experiment: imaging of stained T47D cells, 10 ug/mL antibody
Method: To stain, quadruplicate plates of cells were incubated with 10 μg/mL of anti-CD63 antibodies that was diluted in 2% FBS in PBS, without Calcium and Magnesium (Irving, Cat #9240) (staining buffer) for 30 minutes at 4° C. […] Two plates were immediately fixed and stained with 4% paraformaldehyde (PFA; ThermoFisher, Cat #28908)+5 uM DRAQ5 (ThermoFisher, Cat #62251) in PBS for 20 minutes (non-internalization plates). The remaining two plates were incubated with growth media at 37° C. for 2 hours followed by fixation and staining for 20 minutes using a solution of 4% PFA+5 μM DRAQ5 diluted in PBS (internalization plates). After fixation, all plates were washed once with PBS. One non-internalization plate and one internalization plate were incubated with an anti-Alexa Fluor 488 antibody (Regeneron) at 50 μg/mL in PBS overnight at 4° C. to quench surface Alexa Fluor 488 fluorescence. The remaining plates were incubated with PBS only. Confocal images were acquired on the Opera Phenix (Perkin Elmer) at 40× magnification. Harmony analysis software (Perkin Elmer) was utilized to identify DRAQ5-labeled cells and the total Alexa-Fluor 488 relative fluorescent units (RFU) per cell was determined. The total binding at 4° C. (RFU values of 4° C. unquenched wells), total binding at 37° C. (RFU values of 37° C. unquenched wells), the total internalized RFU, and the % Internalization were determined for each antibody as shown in Table 1. For all calculations, background fluorescence from 2nd Ab only control wells were subtracted from every well. Total internalized RFU was calculated as follows: Total RFU of 37° C. unquenched samples−Surface RFU at 37° C. Surface RFU is defined as unquenched RFU at 37° C.−quenched RFU at 37° C.)/QE. QE (quenching efficiency) is defined as: 1−(Total RFU of 4° C. quenched sample/Total RFU of 4° C. unquenched sample). The % Internalization was determined from the following formula: (Total internalized RFU at 37° C./Total RFU at 37° C.)*100.

human CD63 [2] = target: T1, human CD63; experiment: cell-based or functional assay
human CD63 [3] = target: T1, human CD63; experiment: ECL, U87MG cells
Outline: (§1)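 Detached cells (~2.0×10⁴/well: NIH3T3/hCD63, LNCAP, U87MG, or parental NIH3T3 as negative control) were plated on carbon-electrode plates and blocked with 2% BSA. Anti-CD63 or isotype antibodies (1.7 pM–100 nM, in duplicate) were bound 1 h at RT, then washed. Signal read as electrochemiluminescence.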

human CD63 [4] = target: T1, human CD63; experiment: cell-based or functional assay; remark: listed apart in the source
[5] = target: T2, recombinant human CD63 extracellular loop 2 expressed with a C-terminal Myc-Myc-hexahistidine (human); experiment: SPR Biacore, mAb captured, 37C
T2 construct: also called hCD63 EC loop 2-MMH; human CD63 EC loop 2-MMH
T2 sequence (chain, as listed by the source limits assumed): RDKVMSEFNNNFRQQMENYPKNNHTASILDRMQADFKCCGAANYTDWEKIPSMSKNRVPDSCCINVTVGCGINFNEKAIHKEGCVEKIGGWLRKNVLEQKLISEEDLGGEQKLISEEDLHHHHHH
Outline: (§2)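 Anti-CD63 mAbs captured on anti-mouse Fc or anti-human Fab surfaces; CD63 EC2 reagents flowed in HBS-ET, pH 7.4, at 25° C or 37° C. ka and kd from 1:1 binding model with mass transport limitation; KD and t½ calculated from kinetic rates.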

[6] = target: T3, recombinant human CD63 extracellular loop 2 expressed with a C-terminal human Fc tag (human); experiment: SPR Biacore, mAb captured, 37C
T3 construct: also called hCD63 EC loop 2-hFc; human CD63 EC loop 2-Fc
T3 sequence (chain, as listed by the source limits assumed): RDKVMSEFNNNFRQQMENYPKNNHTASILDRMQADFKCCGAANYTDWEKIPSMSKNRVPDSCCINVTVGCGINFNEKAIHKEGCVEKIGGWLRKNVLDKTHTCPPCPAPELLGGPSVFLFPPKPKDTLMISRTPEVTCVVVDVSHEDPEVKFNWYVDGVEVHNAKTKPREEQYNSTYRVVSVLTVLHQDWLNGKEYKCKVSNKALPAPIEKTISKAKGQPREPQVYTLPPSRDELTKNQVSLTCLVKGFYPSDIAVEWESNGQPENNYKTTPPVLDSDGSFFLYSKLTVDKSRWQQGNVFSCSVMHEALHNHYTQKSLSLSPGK
Outline: as §2

human CD63 [7] = target: T1, human CD63; experiment: ECL, LNCAP cells
Outline: as §1

Row | Binder | Total RFU at 4C (human CD63 [1]) [RFU] | Total RFU at 37C (2 h) (human CD63 [1]) [RFU] | T47D (nM) IC50, indirect cytotoxicity with Fab anti-mFc-MMAF (human CD63 [2]) [nM] | EC50 (human CD63 [3]) [nM] | binding ratio at 3.7 nM vs NIH3T3 (human CD63 [3]) [fold] | % Internalization, T47D cells (human CD63 [4]) [%] | Total Internalized RFU, T47D cells (human CD63 [4]) [RFU] | 100 nM Ag Bound (RU) [5] [RU] | Kd [5] [nM] | koff [5] [s⁻¹] | kon [5] [M⁻¹ s⁻¹] | t1/2 [5] [min] | 100 nM Ag Bound (RU) [6] [RU] | Kd [6] [nM] | koff [6] [s⁻¹] | kon [6] [M⁻¹ s⁻¹] | t1/2 [6] [min] | EC50 (human CD63 [7]) [nM] | binding ratio at 3.7 nM vs NIH3T3 (human CD63 [7]) [fold]
1 | B1 | 2.36e+06 | 2.94e+06 | 0.24 | 1.4 | 272 | 60.9 | 1.79e+06 | 58 | 1.15 | 0.000201 | 175000 | 57 | 138 | 0.119 | 4.89e-05 | 411000 | 236 | 1.4 | 20
2 | B2 | 1.9e+06 | 2.32e+06 |  | 0.79 | 171 | 73.7 | 1.71e+06 | 44 | 21.4 | 0.0019 | 88900 | 6 | 118 | 0.509 | 0.000331 | 651000 | 35 | 0.35 | 18
3 | B3 | 1.5e+06 | 1.69e+06 |  | 0.95 | 52 | 73.2 | 1.24e+06 | 31 | 56.4 | 0.00932 | 165000 | 1 | 123 | 3.38 | 0.00179 | 529000 | 6 | 1.7 | 7
